# Test system: Escherichia coli TOP10
# Assay: shrunken log2 fold change of peptide-encoding DNA abundance (4.5 h post-induction vs induction); higher = less antimicrobial activity (less host growth inhibition)
# Details: time post-induction: 4.5 h; library: site-saturation at positions 5, 18, 19, 20
# 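Further: peptides expressed intracellularly from a pBAD plasmid library in pooled LB shake-flask culture, induced with 0.3% L-arabinose, DNA abundance read by NGS, three biological replicates, DESeq2 with apeglm shrinkage.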
row,Sequence,shrunken log2 fold change
1,RRIRTRPPRLPRPRPRPCMLPRP,0.0676
2,RRIRIRPPRLPRPRPRPGDLPRP,-0.223
3,RRIRNRPPRLPRPRPRPRHCPRP,0.00979
4,RRIRWRPPRLPRPRPRPWMPPRP,-0.127
5,RRIRLRPPRLPRPRPRPDRWPRP,-0.0824
6,RRIRTRPPRLPRPRPRPCWCPRP,-0.0474
7,RRIRWRPPRLPRPRPRPWIRPRP,-0.124
8,RRIRYRPPRLPRPRPRPGNQPRP,-0.252
9,RRIRKRPPRLPRPRPRPIRRPRP,0.0536
10,RRIRDRPPRLPRPRPRPEQEPRP,-0.0197
11,RRIRPRPPRLPRPRPRPKGLPRP,0.062
12,RRIRQRPPRLPRPRPRPNPPPRP,0.0904
13,RRIRYRPPRLPRPRPRPVGSPRP,-0.277
14,RRIRKRPPRLPRPRPRPCISPRP,0.0183
15,RRIRYRPPRLPRPRPRPSIMPRP,-1.54
16,RRIRGRPPRLPRPRPRPDHNPRP,0.0326
17,RRIRPRPPRLPRPRPRPMFMPRP,0.0765
18,RRIRHRPPRLPRPRPRPGKVPRP,-0.0067
19,RRIRRRPPRLPRPRPRPSLVPRP,0.243
20,RRIRWRPPRLPRPRPRPTWKPRP,0.261
21,RRIRYRPPRLPRPRPRPWRSPRP,0.175
22,RRIRPRPPRLPRPRPRPRCDPRP,0.0398

row,Sequence,shrunken log2 fold change
1,RRIRLRPPRLPRPRPRPSMPPRP,-0.4
2,RRIRTRPPRLPRPRPRPETYPRP,-0.275
3,RRIRWRPPRLPRPRPRPWVFPRP,0.262
4,RRIRHRPPRLPRPRPRPQAKPRP,-0.016
5,RRIRYRPPRLPRPRPRPSLDPRP,-1.07
6,RRIRERPPRLPRPRPRPVRAPRP,0.287
7,RRIRLRPPRLPRPRPRPLKIPRP,-0.221
8,RRIRARPPRLPRPRPRPVGVPRP,0.528
9,RRIRKRPPRLPRPRPRPRWKPRP,0.702
10,RRIRRRPPRLPRPRPRPQRAPRP,0.226
11,RRIRCRPPRLPRPRPRPKLIPRP,-0.0459
12,RRIRDRPPRLPRPRPRPELVPRP,0.00724
13,RRIRKRPPRLPRPRPRPCIWPRP,0.0573
14,RRIRIRPPRLPRPRPRPVEIPRP,-0.0212
15,RRIRIRPPRLPRPRPRPVYCPRP,-0.127
16,RRIRQRPPRLPRPRPRPNAPPRP,0.105
17,RRIRGRPPRLPRPRPRPFEMPRP,0.396
18,RRIRFRPPRLPRPRPRPSLCPRP,-0.348
19,RRIRTRPPRLPRPRPRPKGKPRP,0.34
20,RRIRDRPPRLPRPRPRPNGNPRP,-0.169
21,RRIRRRPPRLPRPRPRPNVMPRP,-0.149
22,RRIRARPPRLPRPRPRPWKSPRP,-0.00111

row,Sequence,shrunken log2 fold change
1,RRIRMRPPRLPRPRPRPNWQPRP,0.00599
2,RRIRGRPPRLPRPRPRPNQEPRP,0.389
3,RRIRSRPPRLPRPRPRPTLQPRP,0.128
4,RRIRMRPPRLPRPRPRPGHKPRP,-0.231
5,RRIRWRPPRLPRPRPRPTLYPRP,-0.0322
6,RRIRMRPPRLPRPRPRPWKFPRP,0.0673
7,RRIRIRPPRLPRPRPRPEVGPRP,0.0138
8,RRIRSRPPRLPRPRPRPTYGPRP,-0.303
9,RRIRPRPPRLPRPRPRPWCSPRP,-0.201
10,RRIRARPPRLPRPRPRPMPNPRP,0.353
11,RRIRPRPPRLPRPRPRPVEFPRP,0.068
12,RRIRNRPPRLPRPRPRPKKLPRP,-0.0729
13,RRIRSRPPRLPRPRPRPRLPPRP,0.315
14,RRIRGRPPRLPRPRPRPERAPRP,1.4
15,RRIRYRPPRLPRPRPRPMRYPRP,-0.114
16,RRIRYRPPRLPRPRPRPMRQPRP,-0.0148
17,RRIRRRPPRLPRPRPRPWEPPRP,0.0979
18,RRIRLRPPRLPRPRPRPYLLPRP,-0.248
19,RRIRHRPPRLPRPRPRPMRDPRP,0.684
20,RRIRERPPRLPRPRPRPVDRPRP,0.0364
21,RRIRKRPPRLPRPRPRPRCKPRP,0.00437
22,RRIRMRPPRLPRPRPRPCEPPRP,0.234

row,Sequence,shrunken log2 fold change
1,RRIRARPPRLPRPRPRPMLKPRP,0.216
2,RRIRDRPPRLPRPRPRPAMAPRP,0.575
3,RRIRARPPRLPRPRPRPWEMPRP,0.00132
4,RRIRRRPPRLPRPRPRPLIEPRP,0.35
5,RRIRHRPPRLPRPRPRPMHNPRP,0.708
6,RRIRPRPPRLPRPRPRPRFCPRP,0.225
7,RRIRDRPPRLPRPRPRPLPPPRP,0.306
8,RRIRQRPPRLPRPRPRPQNKPRP,-0.22
9,RRIRYRPPRLPRPRPRPSVWPRP,0.0896
10,RRIRMRPPRLPRPRPRPKQQPRP,0.48
11,RRIRGRPPRLPRPRPRPIKYPRP,0.00555
12,RRIRMRPPRLPRPRPRPMCHPRP,0.0525
13,RRIRGRPPRLPRPRPRPWPLPRP,0.797
14,RRIRPRPPRLPRPRPRPEGWPRP,1.82
15,RRIRKRPPRLPRPRPRPTCYPRP,0.0572
16,RRIRPRPPRLPRPRPRPRLFPRP,1.92
17,RRIRHRPPRLPRPRPRPWATPRP,-0.0619
18,RRIRTRPPRLPRPRPRPVRNPRP,0.509
19,RRIRARPPRLPRPRPRPVHAPRP,0.768
20,RRIRERPPRLPRPRPRPDDQPRP,-0.252
21,RRIRDRPPRLPRPRPRPFLSPRP,0.0846
22,RRIRERPPRLPRPRPRPSELPRP,0.0285

row,Sequence,shrunken log2 fold change
1,RRIRFRPPRLPRPRPRPDYCPRP,-0.127
2,RRIRFRPPRLPRPRPRPRPWPRP,0.505
3,RRIRGRPPRLPRPRPRPYWKPRP,-0.0176
4,RRIRFRPPRLPRPRPRPEYHPRP,-0.202
5,RRIRIRPPRLPRPRPRPAVIPRP,0.0759
6,RRIRERPPRLPRPRPRPELYPRP,-0.0287
7,RRIRDRPPRLPRPRPRPEMYPRP,0.363
8,RRIRGRPPRLPRPRPRPKMWPRP,0.868
9,RRIRQRPPRLPRPRPRPYQSPRP,-0.176
10,RRIRRRPPRLPRPRPRPNYVPRP,-0.338
11,RRIRVRPPRLPRPRPRPGYLPRP,-0.14
12,RRIRPRPPRLPRPRPRPHTWPRP,-0.0512
13,RRIRRRPPRLPRPRPRPWDPPRP,-0.119
14,RRIRHRPPRLPRPRPRPVVTPRP,-0.0256
15,RRIRIRPPRLPRPRPRPRGTPRP,0.277
16,RRIRCRPPRLPRPRPRPKCYPRP,-0.353
17,RRIRFRPPRLPRPRPRPSLGPRP,0.0257
18,RRIRFRPPRLPRPRPRPVYSPRP,-0.12
19,RRIRIRPPRLPRPRPRPCCTPRP,-0.482
20,RRIRSRPPRLPRPRPRPWQIPRP,0.0843
21,RRIRPRPPRLPRPRPRPAIYPRP,-0.017

# Reference: the supplement of paper PMC9112550, “Optimization of the antimicrobial peptide Bac7 by deep mutational scanning” (BMC Biology, 2022)
